Measurements as given in patent US20170296640A1 (IMMATICS BIOTECHNOLOGIES, published 2017).

Target: T1, HLA-A*02:01 (peptide-receptive MHC class I monomer after UV cleavage of the UV-sensitive ligand) (human)
T1 construct: MHC monomers loaded by UV-ligand exchange and captured on streptavidin plates
Test: UV ligand-exchange ELISA; exchange yield grade (+ >=10%, ++ >=20%, +++ >=50%, ++++ >=75%)
From the text: Candidate peptides for T cell based therapies according to the present invention were further tested for their MHC binding capacity (affinity). The individual peptide-MHC complexes were produced by UV-ligand exchange, where a UV-sensitive peptide is cleaved upon UV-irradiation, and exchanged with the peptide of interest as analyzed. Only peptide candidates that can effectively bind and stabilize the peptide-receptive MHC molecules prevent dissociation of the MHC complexes. To determine the yield of the exchange reaction, an ELISA was performed based on the detection of the light chain (β2m) of stabilized MHC complexes. The assay was performed as generally described in Rodenko et al. (Rodenko et al., 2006).
96 well MAXISorp plates (NUNC) were coated over night with 2 ug/ml streptavidin in PBS at room temperature, washed 4× and blocked for 1 h at 37° C. in 2% BSA containing blocking buffer. Refolded HLA-A*02:01/MLA-001 monomers served as standards, covering the range of 15-500 ng/ml. Peptide-MHC monomers of the UV-exchange reaction were diluted 100 fold in blocking buffer. Samples were incubated for 1 h at 37° C., washed four times, incubated with 2 ug/ml HRP conjugated anti-β2m for 1 h at 37° C., washed again and detected with TMB solution that is stopped with […]. Absorption was measured at 450 nm. Candidate peptides that show a high exchange yield (preferably higher than 50%, most preferred higher than 75%) are generally preferred for a generation and production of antibodies or fragments thereof, and/or T cell receptors or fragments thereof, as they show sufficient avidity to the MHC molecules and prevent dissociation of the MHC complexes.

Binder | peptide exchange yield
LLFDQNDKV [LLFDQNDKV (SEQ ID NO: 181)] | 50 to 75%
GLSDISAQV [GLSDISAQV (SEQ ID NO: 191)] | 50 to 75%
FLLDTISGL [FLLDTISGL (SEQ ID NO: 209)] | 50 to 75%
GLIELVDQL [GLIELVDQL (SEQ ID NO: 190)] | 50 to 75%
AVLGTSWQL [AVLGTSWQL (SEQ ID NO: 184)] | 50 to 75%
GMAAEVPKV [GMAAEVPKV (SEQ ID NO: 192)] | 20 to 50%
FIDDLFAFV [FIDDLFAFV (SEQ ID NO: 211)] | 50 to 75%
ILDTIFHKV [ILDTIFHKV (SEQ ID NO: 203)] | 50 to 75%
FLAVSLPLL [FLAVSLPLL (SEQ ID NO: 208)] | 50 to 75%
FLAEQFEFL [FLAEQFEFL (SEQ ID NO: 210)] | 50 to 75%
GLLSAVSSV [GLLSAVSSV (SEQ ID NO: 198)] | 50 to 75%
ALIPDLNQI [ALIPDLNQI (SEQ ID NO: 195)] | 50 to 75%
NLMLELETV [NLMLELETV (SEQ ID NO: 161)] | 50 to 75%
FLDVSRDFV [FLDVSRDFV (SEQ ID NO: 186)] | 20 to 50%
LLSEETPSA [LLSEETPSA (SEQ ID NO: 2)] | 50 to 75%
GLVGLLEQA [GLVGLLEQA (SEQ ID NO: 207)] | ≥ 75%
LLPPPPPVA [LLPPPPPVA (SEQ ID NO: 182)] | ≥ 75%
FLNSFVFKM [FLNSFVFKM (SEQ ID NO: 187)] | 20 to 50%
ALAAGGYDV [ALAAGGYDV (SEQ ID NO: 202)] | 20 to 50%
KLLEEIEFL [KLLEEIEFL (SEQ ID NO: 165)] | 50 to 75%
FVDTNLYFL [FVDTNLYFL (SEQ ID NO: 179)] | 50 to 75%
KLTDQPPLV [KLTDQPPLV (SEQ ID NO: 18)] | 50 to 75%
ALFKEAYSL [ALFKEAYSL (SEQ ID NO: 21)] | 50 to 75%
GILQLVESV [GILQLVESV (SEQ ID NO: 180)] | 50 to 75%
FIAQLNNVEL [FIAQLNNVEL (SEQ ID NO: 185)] | 50 to 75%
GLEDEMYEV [GLEDEMYEV (SEQ ID NO: 188)] | 20 to 50%

Results, then the binder that gave them:

peptide exchange yield | Binder
≥ 75% | TLQDSLEFI [TLQDSLEFI (SEQ ID NO: 172)]
50 to 75% | VMESILLRL [VMESILLRL (SEQ ID NO: 175)]
50 to 75% | TLFYESPHL [TLFYESPHL (SEQ ID NO: 205)]
50 to 75% | YLYEAEEATTL [YLYEAEEATTL (SEQ ID NO: 177)]
≥ 75% | RLADLKVSI [RLADLKVSI (SEQ ID NO: 162)]
50 to 75% | YLHIYESQL [YLHIYESQL (SEQ ID NO: 176)]
≥ 75% | VLEAILPLV [VLEAILPLV (SEQ ID NO: 19)]
≥ 75% | TLLDVISAL [TLLDVISAL (SEQ ID NO: 171)]
20 to 50% | TLIAAILYL [TLIAAILYL (SEQ ID NO: 16)]
20 to 50% | SAVSGQWEV [SAVSGQWEV (SEQ ID NO: 206)]
50 to 75% | SLFSITKSV [SLFSITKSV (SEQ ID NO: 167)]
50 to 75% | SLLSPLLSV [SLLSPLLSV (SEQ ID NO: 168)]
≥ 75% | YLLDFEDRL [YLLDFEDRL (SEQ ID NO: 200)]
20 to 50% | YLLTDNVVKL [YLLTDNVVKL (SEQ ID NO: 197)]
≥ 75% | VLVEITDVDFAA [VLVEITDVDFAA (SEQ ID NO: 174)]
50 to 75% | YVLQGEFFL [YVLQGEFFL (SEQ ID NO: 178)]
50 to 75% | YLNISQVNV [YLNISQVNV (SEQ ID NO: 201)]
≥ 75% | VILDSVASV [VILDSVASV (SEQ ID NO: 173)]
50 to 75% | SLSHLVPAL [SLSHLVPAL (SEQ ID NO: 189)]
20 to 50% | SLAPFDREPFTL [SLAPFDREPFTL (SEQ ID NO: 194)]
20 to 50% | RLCDIVVNV [RLCDIVVNV (SEQ ID NO: 204)]
50 to 75% | VLFETVLTI [VLFETVLTI (SEQ ID NO: 183)]
50 to 75% | VIIPLLSSV [VIIPLLSSV (SEQ ID NO: 17)]
50 to 75% | SLFDGAVISTV [SLFDGAVISTV (SEQ ID NO: 164)]
20 to 50% | SLADSMPSL [SLADSMPSL (SEQ ID NO: 193)]
50 to 75% | SLNSTTWKV [SLNSTTWKV (SEQ ID NO: 199)]
≥ 75% | SIFDAVLKGV [SIFDAVLKGV (SEQ ID NO: 163)]
50 to 75% | SSLEENLLHQV [SSLEENLLHQV (SEQ ID NO: 169)]
